Measurements published in patent CN109912717A.

Assays:
[1] = target: 人CD40 (HEK293A细胞表达) (human) (UniProt P25942); assay: cell-based or functional assay
[2] = target: 人CD40(ECD)-his蛋白 (human) (UniProt P25942); assay: SPR Biacore 8K; human CD40(ECD)-his coupled to CM5, antibody as analyte, 1:1 model
Chain of 人CD40(ECD)-his蛋白 (human) (P25942 21-193): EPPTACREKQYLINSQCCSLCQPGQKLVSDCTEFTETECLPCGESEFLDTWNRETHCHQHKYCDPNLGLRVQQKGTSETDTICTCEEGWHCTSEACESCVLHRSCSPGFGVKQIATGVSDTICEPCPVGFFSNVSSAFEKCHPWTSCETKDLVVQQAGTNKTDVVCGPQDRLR

Chain of 人CD40 (HEK293A细胞表达) (human) (P25942 21-277 limits assumed): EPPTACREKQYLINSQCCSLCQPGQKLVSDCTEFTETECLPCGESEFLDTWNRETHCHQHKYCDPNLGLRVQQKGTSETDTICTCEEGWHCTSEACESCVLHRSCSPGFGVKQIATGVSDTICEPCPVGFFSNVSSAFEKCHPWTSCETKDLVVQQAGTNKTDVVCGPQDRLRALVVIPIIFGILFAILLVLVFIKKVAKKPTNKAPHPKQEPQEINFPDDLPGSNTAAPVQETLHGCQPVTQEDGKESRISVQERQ

HEK-Blue EC50 [1] [µg/mL]	Kd [2] [nM]	Substance
1.03	29	ADC1013 (antibody)
0.0233	1.71	RO7009789 (antibody)
